Usually Kd stands for the equilibrium constant for the complex coming apart. In general, stoichiometry N refers to the number of molecules, sites or subunits per partner or assembly.

Like-named read-outs stand apart in the source and are kept apart here.

The values that follow come from PMC2655680.

Test [1] addresses PNK-FHA (FHA domain of human polynucleotide kinase 3'-phosphatase, amino acids 1-109) (human) (UniProt Q96T60). The test is described as follows: ITC.
The target is the same in test [2]. The test is described as follows: ITC. This is another data set of the same source. On the technique in general: In ITC the heat of successive injections is recorded.

On to “XRCC1 peptide YAGSTDENpTDSE, phosphorylated on Thr523”, for which, in test [1], the Kd worked out at 13.5 µM.
Still for that read-out and setting: next, “XRCC1 peptide YAGSpTDENTDSE, phosphorylated on Thr519”: 10.6 µM.
The same measure, in the same setting: next, “XRCC1 peptide YAGpSTDENpTDSE, phosphorylated on Ser518 and Thr523”: 24.2 µM.
Regarding “XRCC1 peptide YAGSpTDENpTDSE, phosphorylated on Thr519 and Thr523”, the Kd in test [2] came to 0.7 µM; in test [1] it was 0.76 µM. Further, in test [1], the stoichiometry N was 0.51.
The substance “XRCC1 peptide YAGpSpTDENpTDSE, phosphorylated on Ser518, Thr519 and Thr523” showed a stoichiometry N in test [1] of 0.46.
Take “XRCC1 peptide YAGpSpTDENTDSE, phosphorylated on Ser518 and Thr519”: in test [1], the Kd stood at 1.23 µM and the stoichiometry N was determined as 0.51.
